Measurements: patent CN112812179A (UNIV BEIJING, dated 2021)

T1: 人CMTM6氨基酸序列2到24位氨基酸的多肽 (CMTM6 N2-24) (human, UniProt Q9NX76 2-24, C末端耦联BSA (the BSA conjugate is the one made for ELISA, paragraph 46; the KLH conjugate was used for immunisation))
T1 construct: range 2-24; also called CMTM6 N2-24多肽; BSA耦联的CMTM6 N2-24多肽
T1 peptide (looked up): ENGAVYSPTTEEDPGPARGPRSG

T2: Flag-CMTM6 (overexpressed in HEK293T cells) (human, UniProt Q9NX76 1-183)
T2 construct: Detected in denatured cell lysate by Western blot; the band is 26 kD; also called Flag-CMTM6融合表达载体; not shown: Flag tag
T2 sequence (looked up): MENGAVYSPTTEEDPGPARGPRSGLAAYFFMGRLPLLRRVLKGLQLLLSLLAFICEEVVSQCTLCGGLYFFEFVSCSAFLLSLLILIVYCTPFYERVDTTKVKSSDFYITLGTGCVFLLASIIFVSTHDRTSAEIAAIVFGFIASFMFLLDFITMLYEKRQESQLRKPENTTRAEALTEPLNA

T3: 人CMTM6 (endogenous, in 786-O cells and colon cancer tissue) (human, UniProt Q9NX76 1-183)
T3 construct: whole, on cells
T3 sequence (looked up): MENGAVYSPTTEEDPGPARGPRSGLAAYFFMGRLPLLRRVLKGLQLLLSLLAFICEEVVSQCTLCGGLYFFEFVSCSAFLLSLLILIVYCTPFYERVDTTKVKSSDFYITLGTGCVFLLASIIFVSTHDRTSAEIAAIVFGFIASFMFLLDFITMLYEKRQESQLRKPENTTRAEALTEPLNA


How the values were obtained:
[1] = biological target: T1, 人CMTM6氨基酸序列2到24位氨基酸的多肽 (CMTM6 N2-24); experiment: indirect ELISA, serially diluted peptide coated on the plate
[2] = biological target: T2, Flag-CMTM6 (overexpressed in HEK293T …); experiment: Western blot of HEK293T lysates, 1 ug/mL primary antibody; empty-vector control gave no signal
[3] = biological target: T3, 人CMTM6 (endogenous, in 786-O cells and …); experiment: Western blot of 786-O lysates, compared with CMTM6 knockout clones 2E7 and 4D10

| binding result [1] | binding result [2] | binding result [3] | Binder |
| --- | --- | --- | --- |
| binds | – | – | 1-19重链(HC)和轻链(LC)超表达上清 (recombinant 1-19 from HEK293T cells co-transfected with heavy and light chain plasmids) (antibody, V domains shown, Full-length light and heavy chains amplified from 1-19 hybridoma cDNA, cloned into pcDNA3.1 and expressed in HEK293T; see the note of m1 for the printed FR/CDR pieces; also called 共转染本发明抗体1-19重轻链质粒的HEK293T细胞上清) VH: EVQLQQSGAELVKPGASVKLSCASSGFNIKDTYIHWVKRRPEQGLEWIGRIDPANGKTYFHSNFQGKATITADTSSNTAHLELSSLTSEDTAVYYCAFLYDGPIDYWGQGTSVTVSS VL: DVLMTQTPLSLPVSLGDQASISCRSSQSIVYRDGNTYLDWYLQKPGQSPKLLIYKVSNRFSGVPDRFSGSGSGTDFTLKISRVEAEDLGVYYCFQGSLFPYTFGGGTKLEI |
| – | binds | binds | 鼠抗人CMTM6单克隆抗体1-19 (purified from hybridoma supernatant) (antibody, V domains shown, also called 1-19mAb; 本发明抗体1-19) VH: EVQLQQSGAELVKPGASVKLSCASSGFNIKDTYIHWVKRRPEQGLEWIGRIDPANGKTYFHSNFQGKATITADTSSNTAHLELSSLTSEDTAVYYCAFLYDGPIDYWGQGTSVTVSS VL: DVLMTQTPLSLPVSLGDQASISCRSSQSIVYRDGNTYLDWYLQKPGQSPKLLIYKVSNRFSGVPDRFSGSGSGTDFTLKISRVEAEDLGVYYCFQGSLFPYTFGGGTKLEI |
